Results: patent publication US20220306695A1, “COMPSTATIN ANALOGUES AND THEIR MEDICAL USES” (priority 2019, published 2022)
Starred links: 1 amine or outer side, 2 acyl side, 3 side chain; linkers in the order of their positions; H or OH if unused. Positions of bridges follow the written chain, without caps; N, C: chain ends. Non-standard residues stand in square brackets, D forms with d. Groups on a side chain read outwards from the residue. *: point of attachment. Trp(1-Me) = Cn1cc(C[C@H](N)C(=O)O)c2ccccc21; C18 diacid = O=C(O)CCCCCCCCCCCCCCCCC(=O)*; C16 diacid = O=C(O)CCCCCCCCCCCCCCC(=O)*; γGlu = O=C(O)[C@H](CCC(=O)[*:2])N[*:1]; hCys = N[C@@H](CCS)C(=O)O; AEEA = NCCOCCOCC(=O)O; Sar = CNCC(=O)O

B1: Compound 104 (peptide)
peptide: Ac-EGSAYCI[Trp(1-Me)]QDWGEHRC[Sar]EGK([AEEA-AEEA-γGlu-C16 diacid])-NH2
modifications: disulfide 6-16
SMILES: CC[C@H](C)[C@@H]1NC(=O)[C@@H](NC(=O)[C@H](Cc2ccc(O)cc2)NC(=O)[C@H](C)NC(=O)[C@H](CO)NC(=O)CNC(=O)[C@H](CCC(=O)O)NC(C)=O)CSSC[C@@H](C(=O)N(C)CC(=O)N[C@@H](CCC(=O)O)C(=O)NCC(=O)N[C@@H](CCCCNC(=O)COCCOCCNC(=O)COCCOCCNC(=O)CC[C@H](NC(=O)CCCCCCCCCCCCCCC(=O)O)C(=O)O)C(N)=O)NC(=O)[C@H](CCCNC(=N)N)NC(=O)[C@H](Cc2c[nH]cn2)NC(=O)[C@H](CCC(=O)O)NC(=O)CNC(=O)[C@H](Cc2c[nH]c3ccccc23)NC(=O)[C@H](CC(=O)O)NC(=O)[C@H](CCC(N)=O)NC(=O)[C@H](Cc2cn(C)c3ccccc23)NC1=O
B2: Compound 111 (peptide)
peptide: Ac-EGSAYCI[Trp(1-Me)]QDWGEHRC[Sar]EK[γGlu]K([AEEA-AEEA-γGlu-C18 diacid])-NH2
modifications: disulfide 6-16
SMILES: CC[C@H](C)[C@@H]1NC(=O)[C@@H](NC(=O)[C@H](Cc2ccc(O)cc2)NC(=O)[C@H](C)NC(=O)[C@H](CO)NC(=O)CNC(=O)[C@H](CCC(=O)O)NC(C)=O)CSSC[C@@H](C(=O)N(C)CC(=O)N[C@@H](CCC(=O)O)C(=O)N[C@@H](CCCCN)C(=O)N[C@@H](CCC(=O)N[C@@H](CCCCNC(=O)COCCOCCNC(=O)COCCOCCNC(=O)CC[C@H](NC(=O)CCCCCCCCCCCCCCCCC(=O)O)C(=O)O)C(N)=O)C(=O)O)NC(=O)[C@H](CCCNC(=N)N)NC(=O)[C@H](Cc2c[nH]cn2)NC(=O)[C@H](CCC(=O)O)NC(=O)CNC(=O)[C@H](Cc2c[nH]c3ccccc23)NC(=O)[C@H](CC(=O)O)NC(=O)[C@H](CCC(N)=O)NC(=O)[C@H](Cc2cn(C)c3ccccc23)NC1=O
B3: Compound 117 (peptide)
peptide: Ac-SEYCI[Trp(1-Me)]QDWGEHRC[Sar]EGE[AEEA][AEEA]K([γGlu-Gly-γGlu-C18 diacid])-NH2
modifications: disulfide 4-14
B4: Compound 153 (peptide)
peptide: SEFAIWQEWGEHRCGEGEXXK
modifications: not fully specified; N-acetyl; C-terminal amide; delta-cystathionine (Ctt2) thioether bridge A4-hCys14 (hCys written C); W6 is 1-Me-Trp; G15 is Sar; X19 and X20 are Peg3; K21 side chain bears [17-carboxy-heptadecanoyl][γGlu]G[γGlu]
B5: Compound 125 (peptide)
peptide: Ac-SEYCI[Trp(1-Me)]QEWGEHRC[Sar]EGE[AEEA][AEEA]K([γGlu-Gly-γGlu-C18 diacid])-NH2
modifications: disulfide 4-14
SMILES: CC[C@H](C)[C@@H]1NC(=O)[C@@H](NC(=O)[C@H](Cc2ccc(O)cc2)NC(=O)[C@H](CCC(=O)O)NC(=O)[C@H](CO)NC(C)=O)CSSC[C@@H](C(=O)N(C)CC(=O)N[C@@H](CCC(=O)O)C(=O)NCC(=O)N[C@@H](CCC(=O)O)C(=O)NCCOCCOCC(=O)NCCOCCOCC(=O)N[C@@H](CCCCNC(=O)CC[C@H](NC(=O)CNC(=O)CC[C@H](NC(=O)CCCCCCCCCCCCCCCCC(=O)O)C(=O)O)C(=O)O)C(N)=O)NC(=O)[C@H](CCCNC(=N)N)NC(=O)[C@H](Cc2c[nH]cn2)NC(=O)[C@H](CCC(=O)O)NC(=O)CNC(=O)[C@H](Cc2c[nH]c3ccccc23)NC(=O)[C@H](CCC(=O)O)NC(=O)[C@H](CCC(N)=O)NC(=O)[C@H](Cc2cn(C)c3ccccc23)NC1=O
B6: Compound 124 (peptide)
peptide: Ac-SEFCI[Trp(1-Me)]QEWGEHRC[Sar]EGE[AEEA][AEEA]K([γGlu-Gly-γGlu-C18 diacid])-NH2
modifications: disulfide 4-14
SMILES: CC[C@H](C)[C@@H]1NC(=O)[C@@H](NC(=O)[C@H](Cc2ccccc2)NC(=O)[C@H](CCC(=O)O)NC(=O)[C@H](CO)NC(C)=O)CSSC[C@@H](C(=O)N(C)CC(=O)N[C@@H](CCC(=O)O)C(=O)NCC(=O)N[C@@H](CCC(=O)O)C(=O)NCCOCCOCC(=O)NCCOCCOCC(=O)N[C@@H](CCCCNC(=O)CC[C@H](NC(=O)CNC(=O)CC[C@H](NC(=O)CCCCCCCCCCCCCCCCC(=O)O)C(=O)O)C(=O)O)C(N)=O)NC(=O)[C@H](CCCNC(=N)N)NC(=O)[C@H](Cc2c[nH]cn2)NC(=O)[C@H](CCC(=O)O)NC(=O)CNC(=O)[C@H](Cc2c[nH]c3ccccc23)NC(=O)[C@H](CCC(=O)O)NC(=O)[C@H](CCC(N)=O)NC(=O)[C@H](Cc2cn(C)c3ccccc23)NC1=O
B7: Compound 167 (peptide)
peptide: Ac-SEF[hCys]I[Trp(1-Me)]QEWGEHRA[Sar]EGE[AEEA][AEEA]K([γGlu-Gly-γGlu-C18 diacid])-NH2
modifications: thioether 4-14
B8: Compound 146 (peptide)
peptide: SEFAIWQDWGEHRCGEGEXXK
modifications: not fully specified; N-acetyl; C-terminal amide; delta-cystathionine (Ctt2) thioether bridge A4-hCys14 (hCys written C); W6 is 1-Me-Trp; G15 is Sar; X19 and X20 are Peg3; K21 side chain bears [17-carboxy-heptadecanoyl][γGlu]G[γGlu]
B9: Compound 126 (peptide)
peptide: Ac-SEFCI[Trp(1-Me)]QDWGEHRCTEGE[AEEA][AEEA]K([γGlu-Gly-γGlu-C18 diacid])-NH2
modifications: disulfide 4-14
B10: Compound 149 (peptide)
peptide: GEFAIWQDWGEHRCGEAEXXK
modifications: not fully specified; N-acetyl; C-terminal amide; delta-cystathionine (Ctt2) thioether bridge A4-hCys14 (hCys written C); W6 is 1-Me-Trp; G10 is Sar; G15 is Sar; X19 and X20 are Peg3; K21 side chain bears [17-carboxy-heptadecanoyl][γGlu]G[γGlu]
B11: Compound 54 (peptide)
peptide: Ac-EGSAYCI[Trp(1-Me)]QDWGEHRC[Sar]E-NH2
modifications: disulfide 6-16
SMILES: CC[C@H](C)[C@@H]1NC(=O)[C@@H](NC(=O)[C@H](Cc2ccc(O)cc2)NC(=O)[C@H](C)NC(=O)[C@H](CO)NC(=O)CNC(=O)[C@H](CCC(=O)O)NC(C)=O)CSSC[C@@H](C(=O)N(C)CC(=O)N[C@@H](CCC(=O)O)C(N)=O)NC(=O)[C@H](CCCNC(=N)N)NC(=O)[C@H](Cc2c[nH]cn2)NC(=O)[C@H](CCC(=O)O)NC(=O)CNC(=O)[C@H](Cc2c[nH]c3ccccc23)NC(=O)[C@H](CC(=O)O)NC(=O)[C@H](CCC(N)=O)NC(=O)[C@H](Cc2cn(C)c3ccccc23)NC1=O
B12: Compound 107 (peptide)
peptide: {C16 diacid}-EGSEYCI[Trp(1-Me)]QDWGEHRC[Sar]E-NH2
modifications: disulfide 6-16
SMILES: CC[C@H](C)[C@@H]1NC(=O)[C@@H](NC(=O)[C@H](Cc2ccc(O)cc2)NC(=O)[C@H](CCC(=O)O)NC(=O)[C@H](CO)NC(=O)CNC(=O)[C@H](CCC(=O)O)NC(=O)CCCCCCCCCCCCCCC(=O)O)CSSC[C@@H](C(=O)N(C)CC(=O)N[C@@H](CCC(=O)O)C(N)=O)NC(=O)[C@H](CCCNC(=N)N)NC(=O)[C@H](Cc2c[nH]cn2)NC(=O)[C@H](CCC(=O)O)NC(=O)CNC(=O)[C@H](Cc2c[nH]c3ccccc23)NC(=O)[C@H](CC(=O)O)NC(=O)[C@H](CCC(N)=O)NC(=O)[C@H](Cc2cn(C)c3ccccc23)NC1=O
B13: Compound 119 (peptide)
peptide: Ac-SEFCI[Trp(1-Me)]QDWGEHRC[Sar]EGAK([AEEA-γGlu-AEEA-Gly-γGlu-C18 diacid])-NH2
modifications: disulfide 4-14
SMILES: CC[C@H](C)[C@@H]1NC(=O)[C@@H](NC(=O)[C@H](Cc2ccccc2)NC(=O)[C@H](CCC(=O)O)NC(=O)[C@H](CO)NC(C)=O)CSSC[C@@H](C(=O)N(C)CC(=O)N[C@@H](CCC(=O)O)C(=O)NCC(=O)N[C@@H](C)C(=O)N[C@@H](CCCCNC(=O)COCCOCCNC(=O)CC[C@H](NC(=O)COCCOCCNC(=O)CNC(=O)CC[C@H](NC(=O)CCCCCCCCCCCCCCCCC(=O)O)C(=O)O)C(=O)O)C(N)=O)NC(=O)[C@H](CCCNC(=N)N)NC(=O)[C@H](Cc2c[nH]cn2)NC(=O)[C@H](CCC(=O)O)NC(=O)CNC(=O)[C@H](Cc2c[nH]c3ccccc23)NC(=O)[C@H](CC(=O)O)NC(=O)[C@H](CCC(N)=O)NC(=O)[C@H](Cc2cn(C)c3ccccc23)NC1=O
B14: Compound 102 (peptide)
peptide: Ac-FCI[Trp(1-Me)]QDWGEHRCTGAESK([AEEA-AEEA-γGlu-C16 diacid])-NH2
modifications: disulfide 2-12
SMILES: CC[C@H](C)[C@@H]1NC(=O)[C@@H](NC(=O)[C@H](Cc2ccccc2)NC(C)=O)CSSC[C@@H](C(=O)N[C@H](C(=O)NCC(=O)N[C@@H](C)C(=O)N[C@@H](CCC(=O)O)C(=O)N[C@@H](CO)C(=O)N[C@@H](CCCCNC(=O)COCCOCCNC(=O)COCCOCCNC(=O)CC[C@H](NC(=O)CCCCCCCCCCCCCCC(=O)O)C(=O)O)C(N)=O)[C@@H](C)O)NC(=O)[C@H](CCCNC(=N)N)NC(=O)[C@H](Cc2c[nH]cn2)NC(=O)[C@H](CCC(=O)O)NC(=O)CNC(=O)[C@H](Cc2c[nH]c3ccccc23)NC(=O)[C@H](CC(=O)O)NC(=O)[C@H](CCC(N)=O)NC(=O)[C@H](Cc2cn(C)c3ccccc23)NC1=O

Assays:
[1] = biological target: T1, Human C3 (human, UniProt P01024 23-1663); assay: SPR, C3 immobilised
T1 construct: In SPR the bought human C3 was immobilised on CM5 chips by amine coupling; In the haemolysis assay the C3 is that of diluted human serum; also called complement C3
T1 sequence (P01024 23-1663 limits assumed): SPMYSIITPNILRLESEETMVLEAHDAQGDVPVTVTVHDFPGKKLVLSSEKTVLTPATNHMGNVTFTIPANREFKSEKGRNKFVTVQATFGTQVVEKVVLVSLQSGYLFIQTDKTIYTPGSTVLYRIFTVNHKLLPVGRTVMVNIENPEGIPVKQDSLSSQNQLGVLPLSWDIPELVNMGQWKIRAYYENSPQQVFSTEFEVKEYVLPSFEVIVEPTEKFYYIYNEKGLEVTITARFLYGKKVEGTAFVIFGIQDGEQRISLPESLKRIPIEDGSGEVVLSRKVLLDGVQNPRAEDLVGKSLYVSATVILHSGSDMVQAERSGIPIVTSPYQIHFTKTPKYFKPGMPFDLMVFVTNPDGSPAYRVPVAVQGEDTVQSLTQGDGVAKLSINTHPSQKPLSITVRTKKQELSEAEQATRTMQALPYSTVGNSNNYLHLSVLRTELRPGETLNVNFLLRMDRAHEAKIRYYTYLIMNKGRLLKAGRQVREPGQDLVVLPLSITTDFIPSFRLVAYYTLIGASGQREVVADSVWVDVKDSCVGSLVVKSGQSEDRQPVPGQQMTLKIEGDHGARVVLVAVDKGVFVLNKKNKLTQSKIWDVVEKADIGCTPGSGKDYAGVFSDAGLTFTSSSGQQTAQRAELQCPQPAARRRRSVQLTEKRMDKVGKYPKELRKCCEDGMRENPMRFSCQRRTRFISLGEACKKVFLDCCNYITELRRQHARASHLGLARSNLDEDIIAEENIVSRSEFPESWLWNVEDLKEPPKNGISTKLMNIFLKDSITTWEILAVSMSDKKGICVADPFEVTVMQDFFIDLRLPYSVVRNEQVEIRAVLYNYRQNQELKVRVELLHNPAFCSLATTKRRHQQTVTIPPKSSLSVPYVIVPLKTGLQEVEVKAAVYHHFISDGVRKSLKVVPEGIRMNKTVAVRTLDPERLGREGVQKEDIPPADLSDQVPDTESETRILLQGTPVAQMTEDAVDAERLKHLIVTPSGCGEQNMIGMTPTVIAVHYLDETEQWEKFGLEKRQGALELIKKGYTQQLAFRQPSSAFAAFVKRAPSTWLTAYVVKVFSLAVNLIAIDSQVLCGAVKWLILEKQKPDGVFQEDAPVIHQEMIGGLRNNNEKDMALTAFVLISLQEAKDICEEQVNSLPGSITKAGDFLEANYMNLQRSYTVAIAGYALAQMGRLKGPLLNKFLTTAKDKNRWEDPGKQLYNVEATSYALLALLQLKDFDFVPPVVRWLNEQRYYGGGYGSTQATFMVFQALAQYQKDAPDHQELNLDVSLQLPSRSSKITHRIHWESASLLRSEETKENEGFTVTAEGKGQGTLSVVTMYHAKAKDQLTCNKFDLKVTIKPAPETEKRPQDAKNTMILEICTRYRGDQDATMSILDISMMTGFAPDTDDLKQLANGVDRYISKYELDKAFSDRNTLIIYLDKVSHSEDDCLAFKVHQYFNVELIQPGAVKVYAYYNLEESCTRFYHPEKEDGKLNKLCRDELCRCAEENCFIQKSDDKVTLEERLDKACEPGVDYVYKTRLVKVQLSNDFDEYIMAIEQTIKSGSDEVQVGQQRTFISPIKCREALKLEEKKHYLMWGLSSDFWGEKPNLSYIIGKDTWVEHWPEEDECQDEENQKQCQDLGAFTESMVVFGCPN
Method: Surface plasmon resonance (SPR) was used to characterize peptides with respect to their binding affinity (Kd) for C3. Human C3 (Complement tech cat #A1 13c) was immobilised on individual flow cells of CM5 sensor chips (GE Healthcare) using standard amine coupling to a density of approximately 3000 resonance units (RU) in a buffer consisting of 10 mM phosphate pH 7.4, 150 mM NaCl, 0.05% Tween20.
For interaction experiments a multi-cycle experiment approach was used and performed using either a Biacore™ T200 or Biacore™ X100 instrument (GE Healthcare) at 25° C. Peptides were injected in increasing concentration series (5-8 different concentrations) for 60-120 s at a flow rate of 30 μL/min in a buffer consisting of 10 mM Tris buffer at pH 7.4, with 150 mM NaCl and 0.05% Tween20. This was followed by a dissociation period for up to 10 min. The C3 surface was regenerated between runs by a 45 s injection of 3 M MgCl₂.
Sensorgrams were double-referenced (reference surface, blanks) prior to analysis of the kinetic profiles by globally fitting data to a 1:1 Langmuir binding model to obtain association and dissociation rates for calculation of the equilibrium dissociation constant Kd. Each peptide was tested at in at least 2 independent experiments.

[2] = biological target: T1, Human C3; assay: cell-based or functional assay

Binder	Kd [1] [µM]	IC50[nM], inhibition of hemolysis [2] [nM]
B1	0.034	< 100
B2	0.0082	< 100
B3	0.024	< 250
B4	0.0111	< 100
B5	0.071	< 500
B6	0.031	< 100
B7	0.0574	< 500
B8	0.00043	< 100
B9	0.0052	< 100
B10	0.0005	< 100
B11	0.003	< 100
B12	0.0061	< 100
B13	0.0098	< 100
B14	0.0017	< 100
